From the supplement of paper PMC10201428
± gives the standard deviation of the averaged measurements.

What was measured:
[1] = test system: VchCAST RNA-guided transposition machinery (E. coli BL21(DE3) host, lacZ target); experiment: relative integration efficiency (T-RL orientation) vs wild-type transposon end (log2 (normalized fold change)); transposon end mutated: right end (5 bp flank + 75 bp right end); higher = more efficient transposition
How it was run: (§1)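 In E. coli BL21(DE3), a T7-driven effector plasmid was paired with a pUC57 mini-transposon donor containing 1549 left-end or 1849 right-end barcoded transposon variants. Cells grew on plates with 0.1 mM IPTG at 37°C for 18 h. Relative integration efficiency was derived from Illumina reads of genomic integration junctions against input plasmids, as a log-transformed output/input barcode fold change normalised to reference barcodes.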

[2] = test system: VchCAST RNA-guided transposition machinery (E. coli BL21(DE3) host, lacZ target); experiment: relative integration efficiency (T-LR orientation) vs wild-type transposon end (log2 (normalized fold change)); transposon end mutated: right end (5 bp flank + 75 bp right end); higher = more efficient transposition
How it was run: as §1

| Sequence | relative integration efficiency (log2) [1] | relative integration efficiency (log2) [2] |
| --- | --- | --- |
| ACATTTGTTGATACAACCATAAAATGATAATTACAACCATAAGTTGATATTTTTCACAACCATATATTGATATCTCCTCTGATCATAGTCAGACCAACATTGCTACGACCCGTATTCGCACCGACAC | -0.125 ± 0.19 | 0.235 ± 0.079 |
| ACATTTGTTGATACAACCATAAAATGATAATTACAACCATAAGTTGATATTTTTCACACCCATAAATTGATAATTACTCTGATCATAGTCAGACCAACATTGCTACGACCCGTATTCGCACCGACAC | -0.168 ± 0.11 | -0.141 ± 0.51 |
| ACATTTGTTGATACAACCATAAAATGATAATTACAACCATAAGTTGATATTTTTCACACCCATAAATTGATATTGCCTCTGATCATAGTCAGACCAACATTGCTACGACCCGTATTCGCACCGACAC | -0.349 ± 0.2 | 0.0596 ± 0.086 |
| ACATTTGTTGATACAACCATAAAATGATAATTACAACCATAAGTTGATATTTTTCAGTGGGTATTTAACTATAACGCTCTGATCATAGTCAGACCAACATTGCTACGACCCGTATTCGCACCGACAC | -0.515 ± 0.22 | 2.72 ± 0.21 |
| ACATTTGTTGATACAACCATAAAATGATAATTACAACCATATATTGATATCTCTCACAACCATAAAATGATAATTACTCTGATCATAGTCAGACCAACATTGCTACGACCCGTATTCGCACCGACAC | -0.257 ± 0.18 | 0.146 ± 0.15 |
| ACATTTGTTGATACAACCATAAAATGATAATTACAACCATATATTGATATCTCTCACAACCATAAAGTGATATTTACTCTGATCATAGTCAGACCAACATTGCTACGACCCGTATTCGCACCGACAC | -0.5 ± 0.27 | 0.0743 ± 0.02 |
| ACATTTGTTGATACAACCATAAAATGATAATTACAACCATATATTGATATCTCTCACAACCATAAGTTGATATTTTCTCTGATCATAGTCAGACCAACATTGCTACGACCCGTATTCGCACCGACAC | -0.374 ± 0.19 | -0.141 ± 0.5 |
| ACATTTGTTGATACAACCATAAAATGATAATTACAACCATATATTGATATCTCTCACAACCATATATTGATATCTCCTCTGATCATAGTCAGACCAACATTGCTACGACCCGTATTCGCACCGACAC | -0.574 ± 0.17 | 0.0166 ± 0.61 |
| ACATTTGTTGATACAACCATAAAATGATAATTACAACCATATATTGATATCTCTCACACCCATAAATTGATAATTACTCTGATCATAGTCAGACCAACATTGCTACGACCCGTATTCGCACCGACAC | -0.651 ± 0.2 | -0.0249 ± 0.15 |
| ACATTTGTTGATACAACCATAAAATGATAATTACAACCATATATTGATATCTCTCACACCCATAAATTGATATTGCCTCTGATCATAGTCAGACCAACATTGCTACGACCCGTATTCGCACCGACAC | -0.424 ± 0.15 | 0.0992 ± 0.38 |
| ACATTTGTTGATACAACCATAAAATGATAATTACAACCATATATTGATATCTCTCAGTGGGTATTTAACTATAACGCTCTGATCATAGTCAGACCAACATTGCTACGACCCGTATTCGCACCGACAC | -0.933 ± 0.28 | 3.01 ± 0.18 |
| ACATTTGTTGATACAACCATAAAATGATAATTACACAAATAAATTGATAATTATCACACCCATAAATTGATATTGCCTCTGATCATAGTCAGACCAACATTGCTACGACCCGTATTCGCACCGACAC | -0.996 ± 0.19 | -1.82 ± 0.23 |
| ACATTTGTTGATACAACCATAAAATGATAATTACACAACGAAATTGATAATTATCACACCCATAAATTGATATTGCCTCTGATCATAGTCAGACCAACATTGCTACGACCCGTATTCGCACCGACAC | -3.5 ± 0.2 | -3.53 ± 0.42 |
| ACATTTGTTGATACAACCATAAAATGATAATTACACAACGCCCGGTCGCCGGCGACACAAACGCCCGGTCGCGGTAAGAGGATCATAGTCAGACCAACATTGCTACGACCCGTATTCGCACCGACAC | -2.42 ± 0.23 | 0.604 ± 0.2 |
| ACATTTGTTGATACAACCATAAAATGATAATTACACCACGCAATTGATAATTATCACACCCATAAATTGATATTGCCTCTGATCATAGTCAGACCAACATTGCTACGACCCGTATTCGCACCGACAC | -3.04 ± 0.044 | -2.53 ± 0.18 |
| ACATTTGTTGATACAACCATAAAATGATAATTACACCACGCCCGGTCGCCGGCGACACAAACGCCCGGTCGCGGTAAGAGGATCATAGTCAGACCAACATTGCTACGACCCGTATTCGCACCGACAC | -2.31 ± 0.082 | 0.799 ± 0.081 |
| ACATTTGTTGATACAACCATAAAATGATAATTACACCACTAAATTGATAATTATCACACCCATAAATTGATATTGCCTCTGATCATAGTCAGACCAACATTGCTACGACCCGTATTCGCACCGACAC | -1.78 ± 0.12 | -2.09 ± 0.036 |
| ACATTTGTTGATACAACCATAAAATGATAATTACACCCAATAATTGATAATTATCACACCCATAAATTGATATTGCCTCTGATCATAGTCAGACCAACATTGCTACGACCCGTATTCGCACCGACAC | -0.277 ± 0.02 | -0.381 ± 0.18 |
| ACATTTGTTGATACAACCATAAAATGATAATTACACCCAATTTTTGATAATTATCACACCCATAAATTGATATTGCCTCTGATCATAGTCAGACCAACATTGCTACGACCCGTATTCGCACCGACAC | -0.529 ± 0.16 | -0.688 ± 0.35 |
| ACATTTGTTGATACAACCATAAAATGATAATTACACCCAGCAATTGATAATTATCACACCCATAAATTGATATTGCCTCTGATCATAGTCAGACCAACATTGCTACGACCCGTATTCGCACCGACAC | -2.18 ± 0.085 | -2.55 ± 0.22 |
| ACATTTGTTGATACAACCATAAAATGATAATTACACCCAGCCCGGTCGCCGGCGACACAAACGCCCGGTCGCGGTAAGAGGATCATAGTCAGACCAACATTGCTACGACCCGTATTCGCACCGACAC | -1.97 ± 0.16 | 1.03 ± 0.08 |
| ACATTTGTTGATACAACCATAAAATGATAATTACACCCAGCCCTTGATAATTATCACACCCATAAATTGATATTGCCTCTGATCATAGTCAGACCAACATTGCTACGACCCGTATTCGCACCGACAC | -1.99 ± 0.04 | -2.1 ± 0.29 |
| ACATTTGTTGATACAACCATAAAATGATAATTACACCCATAAAAACTTAATTATCACACCCATAAATTGATATTGCCTCTGATCATAGTCAGACCAACATTGCTACGACCCGTATTCGCACCGACAC | -0.679 ± 0.12 | -0.52 ± 0.069 |
| ACATTTGTTGATACAACCATAAAATGATAATTACACCCATAAAAAGATAATTATCACACCCATAAATTGATATTGCCTCTGATCATAGTCAGACCAACATTGCTACGACCCGTATTCGCACCGACAC | -0.162 ± 0.011 | -1.08 ± 0.96 |
| ACATTTGTTGATACAACCATAAAATGATAATTACACCCATAAAGGGATAATTATCACACCCATAAATTGATATTGCCTCTGATCATAGTCAGACCAACATTGCTACGACCCGTATTCGCACCGACAC | -0.447 ± 0.064 | -0.969 ± 0.58 |
| ACATTTGTTGATACAACCATAAAATGATAATTACACCCATAAAGGTCGCCGGCGACACAAACGCCCGGTCGCGGTAAGAGGATCATAGTCAGACCAACATTGCTACGACCCGTATTCGCACCGACAC | -2.2 ± 0.37 | 0.613 ± 0.011 |
| ACATTTGTTGATACAACCATAAAATGATAATTACACCCATAAAGGTCTAATTATCACACCCATAAATTGATATTGCCTCTGATCATAGTCAGACCAACATTGCTACGACCCGTATTCGCACCGACAC | -1.77 ± 0.13 | -1.72 ± 0.31 |
